Measured values published in patent US20220356265A1 (KEIO UNIVERSITY, published 2022).

Assays:
human glypican-1 (GPC-1) = target: T1, human glypican-1 (GPC-1) (human, UniProt P35052 24-530); assay: statement opening Example 7; no assay named
T1 construct: whole, on cells; also called GPC-1 antigen
T1 sequence (looked up): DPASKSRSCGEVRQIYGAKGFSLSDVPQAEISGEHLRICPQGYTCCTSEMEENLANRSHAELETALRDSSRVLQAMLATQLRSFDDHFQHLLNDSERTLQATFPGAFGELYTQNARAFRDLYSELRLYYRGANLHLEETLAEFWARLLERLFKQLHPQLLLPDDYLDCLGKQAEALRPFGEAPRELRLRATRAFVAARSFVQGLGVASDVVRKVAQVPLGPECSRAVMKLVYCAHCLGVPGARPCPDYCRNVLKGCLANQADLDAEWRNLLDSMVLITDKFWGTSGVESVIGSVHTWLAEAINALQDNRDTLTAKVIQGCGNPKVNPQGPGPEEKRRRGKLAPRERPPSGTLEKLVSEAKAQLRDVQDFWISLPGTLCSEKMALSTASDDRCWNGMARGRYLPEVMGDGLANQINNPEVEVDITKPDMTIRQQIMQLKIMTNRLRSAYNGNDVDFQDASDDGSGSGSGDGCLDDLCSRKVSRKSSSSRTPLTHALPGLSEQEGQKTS

mouse GPC-1 = target: T2, mouse GPC-1 (mouse, UniProt Q9QZF2 24-529); assay: statement opening Example 7; no assay named
T2 construct: whole, on cells; also called mouse glypican-1
T2 sequence (looked up): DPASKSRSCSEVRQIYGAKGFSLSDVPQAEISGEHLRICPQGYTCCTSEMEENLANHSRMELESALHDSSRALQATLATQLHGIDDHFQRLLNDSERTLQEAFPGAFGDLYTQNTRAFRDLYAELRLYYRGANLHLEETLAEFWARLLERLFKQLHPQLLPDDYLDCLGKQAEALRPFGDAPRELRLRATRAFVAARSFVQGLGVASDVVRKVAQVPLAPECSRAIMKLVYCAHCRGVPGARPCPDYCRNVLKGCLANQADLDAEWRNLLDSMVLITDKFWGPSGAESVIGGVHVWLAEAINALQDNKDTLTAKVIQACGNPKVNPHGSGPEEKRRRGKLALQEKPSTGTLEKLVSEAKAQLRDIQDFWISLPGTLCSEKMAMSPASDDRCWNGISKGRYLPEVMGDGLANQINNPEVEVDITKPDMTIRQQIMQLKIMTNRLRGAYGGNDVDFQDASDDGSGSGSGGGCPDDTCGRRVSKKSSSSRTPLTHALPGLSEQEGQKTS

B1: anti-GPC-1-CAR (Type A or Type B not stated) (other)
VH: AVTLDESGGGLQTPGRALSLVCKASGFTFSRYAMYWVRQAPGKGLEFVAGIGNTGRYTGYGSAVKGRATISRDSGQSTVRLQLNNLRAEDTGNYYCAKSVSPYCCDAADIDAWGHGTEVIVSS
VL: ASTQPSSVSANPGETVKITCSGGSSGYAYGWYQQKSPGSAPVTLLYSNNNRPSDIPSRFSGSKSGSTATLTITGVQAEDEAVYFCGSVDSSSYAGIFGAGTTLTVL
notes: VH and VL in truth stand in one CAR chain with a (Gly4Ser)3 linker, a human CD28-derived part and the human CD3zeta intracellular domain; also called GPC-1 CAR gene of the invention; CAR of the anti-GPC-1-CAR-T cells
B1: binds (human glypican-1 (GPC-1)); binds (mouse GPC-1).
